Earlier results on one molecule are cited in patent US8460910B2 (Illumina Cambridge Limited, priority 2003, dated 2013).

For this data set, the system named is ddNTPs. As to conditions: cited from earlier work.

B1: A486Y variant of Pfu DNA polymerase: Pfu DNA polymerase with A486Y mutation (Evans et al. 2000) (protein, UniProt P61875 1-775, looked up, variant A486Y)
DNA polymerase: MILDVDYITEEGKPVIRLFKKENGKFKIEHDRTFRPYIYALLRDDSKIEEVKKITGERHGKIVRIVDVEKVEKKFLGKPITVWKLYLEHPQDVPTIREKVREHPAVVDIFEYDIPFAKRYLIDKGLIPMEGEEELKILAFDIETLYHEGEEFGKGPIIMISYADENEAKVITWKNIDLPYVEVVSSEREMIKRFLRIIREKDPDIIVTYNGDSFDFPYLAKRAEKLGIKLTIGRDGSEPKMQRIGDMTAVEVKGRIHFDLYHVITRTINLPTYTLEAVYEAIFGKPKEKVYADEIAKAWESGENLERVAKYSMEDAKATYELGKEFLPMEIQLSRLVGQPLWDVSRSSTGNLVEWFLLRKAYERNEVAPNKPSEEEYQRRLRESYTGGFVKEPEKGLWENIVYLDFRALYPSIIITHNVSPDTLNLEGCKNYDIAPQVGHKFCKDIPGFIPSLLGHLLEERQKIKTKMKETQDPIEKILLDYRQKYIKLLANSFYGYYGYAKARWYCKECAESVTAWGRKYIELVWKELEEKFGFKVLYIDTDGLYATIPGGESEEIKKKALEFVKYINSKLPGLLELEYEGFYKRGFFVTKKRYAVIDEEGKVITRGLEIVRRDWSEIAKETQARVLETILKHGDVEEAVRIVKEVIQKLANYEIPPEKLAIYEQITRPLHEYKAIGPHVAVAKKLAAKGVKIKPGMVIGYIVLRGDGPISNRAILAEEYDPKKHKYDAEYYIENQVLPAVLRILEGFGYRKEDLRYQKTRQVGLTSWLNIKKS
With B1, the “improvement of ratio of ddNTP/dNTP in sequencing ladders compared to wild type” value is 150 fold.
